Laboratory results: the supplement of paper PMC12042874
± gives the uncertainty stated by the source.

Experiment: amyloid nucleation score (Sup35N fusion, yeast selection) (log enrichment); library NNK3; higher = more nucleation; inactive = no reads after selection
Method in brief: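 Psi-negative yeast expressed Sup35N fused to peptides of 20 random codons. They were induced 24 hours with 100 μM copper sulfate, grown 7 days at 30°C without adenine and uracil, and their plasmid inserts from input and output were Illumina-sequenced. The nucleation score is the DiMSum log enrichment of output over input reads, centred on the mode score of non-aggregating sequences. Sequences with under 100 input reads were excluded.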

Substance | amyloid nucleation score
LANSKLDCLSVHLFEHNCLA | 1.95 ± 0.069
NLFFSVSMSAEFEW | 0.078 ± 0.37
AMQAAPVCRRYAVVTTHFDH | inactive
CVASGCTVKACFYSMREDRY | 1.53 ± 0.092
KYQLHYLDVFFYDVV | inactive
TRMWYGLLAENGCAYLGCNW | inactive
AWTTQPPYMFSSGFWNFYVC | inactive
DFIDLLLSSDEIMKS | inactive
DPVIYRCSLVLLYSERSLPY | inactive
KGLASSYRTTYAVDL | inactive
CVATNYSYCSIFLHRA | 2.01 ± 0.079
MCKGR | inactive
FCHVRMLAISTIYGSSVEVF | inactive
NINYSPFISAQVGLIMAPLN | inactive
LVCDHGSCVKMVIMTDFMSS | inactive
VIKTLTHSFHLTNGFGTSYI | inactive
TIFGDCAEYSYVVLFINLFI | 2.1 ± 0.098
WCFMQQFVFTLGRKFRIWRI | inactive
VCTYNLAFGYFGVVWLTFVV | -0.519 ± 0.82
THDSMHKCERMITPRGGCQQ | inactive
NGPVGN | inactive
WSYREVHRRDLGLLSNGTCW | inactive

Substance | amyloid nucleation score
NDGTSILSTQSLSVRWMVRV | inactive
YQWNIMLKIDCSIDVVVVSN | 0.827 ± 0.27
SRQGVNQKRTVCWS | inactive
SCSSCYIELKWLYLRILLDC | inactive
CLFSLLYPCGWINYSNSNMS | 0.437 ± 0.17
IEVIYGV | inactive
IRRDLYQATPRNLVWAYFGW | inactive
RGKLFLSLLIVYFTLFLSVM | inactive
VWMIPISCKSQFLFEWYGHY | 1.12 ± 0.18
MLFYCN | inactive
VQVIRFFWIMGLTGWTRELP | inactive
WFNLCYFG | 2.5 ± 0.069
VSGRWFTMWSGFSLCFALSG | 0.062 ± 0.46
WYRHGIVEYDAIIWDESARR | inactive
KSREWLLSYFCYGW | inactive
HLGFF | inactive
PGIPGPQLIYRDTILTLECM | 0.03 ± 0.88
CFCVDADIIRTLMVCDIILS | 1.12 ± 0.099
EVKDAWIMSYSLNYWQRLYM | inactive
CLPPKS | inactive
VDMSELVWIISPEVHTVSCS | inactive
KTFMSCFGMGKEEGLSHFPR | inactive

Substance | amyloid nucleation score
IHFLNWSARM | inactive
HLCAVHKQFFYGSTGGVYTR | inactive
DHAIM | 1.46 ± 0.14
VGWNQDGDHMKSLKVAWARW | inactive
RSFHNHHWTVNY | 1.46 ± 0.11
IFNWFDWIFRFSTTSPECLT | inactive
HCSYCVVSE | inactive
RIVSRWCDNLNHTDCECCVC | inactive
YFLYMCALTHRWFWFKFFER | inactive
KPWGPGIIGSGSRIMTDVVE | inactive
VDEIWMGGLFCILYVSEVHK | inactive
IMSPTFGFQMLWPGPRHRLL | inactive
HKYLWCIPWETLCKTWPFFS | inactive
LEYAVVKSHQREESSSTCLG | inactive
SLCDMREWSALVFITHMSMV | inactive
FNHPNQGVCIHCISGKGWTR | inactive
VIPFPFNLGDYCRMFDPRRS | inactive
PRDGERFLG | inactive
RIVIPMVWEYIFSDFVFG | 1.72 ± 0.088
IMLKL | inactive
VTGLCSDTHRVSYEFRLPRK | inactive
